According to US7902330 (ALBERT EINSTEIN COLLEGE OF MEDICINE OF YESHIVA UNIVERSITY, dated 2011):
Starred links: 1 amine or outer side, 2 acyl side, 3 side chain; linkers in the order of their positions; H or OH if unused. Non-standard residues stand in square brackets, D forms with d. *: point of attachment. 4‑nitrohippuryl = O=C(NCC(=O)*)c1ccc([N+](=O)[O-])cc1; Benzoyl(4-(pyrrol-1-yl)) = O=C(c1ccc(-n2cccc2)cc1)*; bis(2,3-dihydroxybenzyl) = not defined here; Cysteamide = C(CS[*:3])N[*:1]; Dap = NC[C@H](N)C(=O)O

Key:
protein kinase Cα [1] = biological target: T1, protein kinase Cα (UniProt P17252 1-672, limits assumed); experiment: cell-based or functional assay
protein kinase C γ [2] = biological target: T2, protein kinase C γ (UniProt P05129 1-697, limits assumed); experiment: cell-based or functional assay
protein kinase C ζ [3] = biological target: T3, protein kinase C ζ (UniProt Q05513 1-592, limits assumed); experiment: cell-based or functional assay
T3 sequence (looked up): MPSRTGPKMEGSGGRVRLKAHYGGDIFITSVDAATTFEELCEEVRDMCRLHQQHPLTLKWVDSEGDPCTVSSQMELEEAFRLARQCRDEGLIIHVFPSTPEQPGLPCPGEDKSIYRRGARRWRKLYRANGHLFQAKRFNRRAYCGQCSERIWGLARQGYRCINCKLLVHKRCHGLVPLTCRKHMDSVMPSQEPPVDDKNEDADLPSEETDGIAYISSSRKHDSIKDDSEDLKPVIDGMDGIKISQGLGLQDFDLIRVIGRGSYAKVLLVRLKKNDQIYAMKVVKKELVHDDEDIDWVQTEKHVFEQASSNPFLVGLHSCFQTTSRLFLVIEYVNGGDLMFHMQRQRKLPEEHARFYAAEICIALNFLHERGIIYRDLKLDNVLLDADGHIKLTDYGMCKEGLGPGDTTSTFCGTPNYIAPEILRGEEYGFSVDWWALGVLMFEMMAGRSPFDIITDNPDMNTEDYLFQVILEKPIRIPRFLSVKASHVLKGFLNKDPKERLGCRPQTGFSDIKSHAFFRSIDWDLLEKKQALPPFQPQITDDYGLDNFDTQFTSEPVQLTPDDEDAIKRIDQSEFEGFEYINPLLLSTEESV

protein kinase C η [4] = biological target: T4, protein kinase C η (UniProt P24723 1-683, limits assumed); experiment: cell-based or functional assay
protein kinase C ε [5] = biological target: T5, protein kinase C ε (UniProt Q02156 1-737, limits assumed); experiment: cell-based or functional assay
T5 sequence (looked up): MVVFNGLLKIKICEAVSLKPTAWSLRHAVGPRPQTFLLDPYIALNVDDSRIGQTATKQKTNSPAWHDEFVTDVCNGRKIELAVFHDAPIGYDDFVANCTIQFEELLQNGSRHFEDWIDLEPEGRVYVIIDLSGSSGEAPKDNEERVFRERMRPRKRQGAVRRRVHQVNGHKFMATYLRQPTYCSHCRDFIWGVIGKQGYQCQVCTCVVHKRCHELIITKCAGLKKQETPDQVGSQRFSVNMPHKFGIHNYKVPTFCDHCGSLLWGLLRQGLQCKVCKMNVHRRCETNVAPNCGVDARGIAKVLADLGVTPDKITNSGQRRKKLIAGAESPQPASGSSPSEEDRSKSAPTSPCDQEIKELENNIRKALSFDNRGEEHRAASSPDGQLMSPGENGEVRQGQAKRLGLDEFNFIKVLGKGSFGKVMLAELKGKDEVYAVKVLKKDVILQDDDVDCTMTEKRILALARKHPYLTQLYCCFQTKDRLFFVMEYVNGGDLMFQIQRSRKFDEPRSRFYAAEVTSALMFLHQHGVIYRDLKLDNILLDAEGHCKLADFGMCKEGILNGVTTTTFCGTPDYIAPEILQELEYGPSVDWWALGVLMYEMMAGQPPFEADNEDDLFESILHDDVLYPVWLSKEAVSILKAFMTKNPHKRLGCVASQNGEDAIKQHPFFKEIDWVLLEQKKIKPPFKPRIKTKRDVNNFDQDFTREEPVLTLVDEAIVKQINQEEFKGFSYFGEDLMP

protein kinase C θ [6] = biological target: T6, protein kinase C θ (UniProt Q04759 1-706, limits assumed); experiment: cell-based or functional assay
protein kinase C βI [7] = biological target: T7, protein kinase C βI (UniProt P05771-1 1-671, limits assumed); experiment: cell-based or functional assay
[8] = biological target: T8, protein kinase C τ (atypical; ι in the tables) (UniProt P41743 1-596); experiment: cell-based or functional assay
T8 sequence (looked up): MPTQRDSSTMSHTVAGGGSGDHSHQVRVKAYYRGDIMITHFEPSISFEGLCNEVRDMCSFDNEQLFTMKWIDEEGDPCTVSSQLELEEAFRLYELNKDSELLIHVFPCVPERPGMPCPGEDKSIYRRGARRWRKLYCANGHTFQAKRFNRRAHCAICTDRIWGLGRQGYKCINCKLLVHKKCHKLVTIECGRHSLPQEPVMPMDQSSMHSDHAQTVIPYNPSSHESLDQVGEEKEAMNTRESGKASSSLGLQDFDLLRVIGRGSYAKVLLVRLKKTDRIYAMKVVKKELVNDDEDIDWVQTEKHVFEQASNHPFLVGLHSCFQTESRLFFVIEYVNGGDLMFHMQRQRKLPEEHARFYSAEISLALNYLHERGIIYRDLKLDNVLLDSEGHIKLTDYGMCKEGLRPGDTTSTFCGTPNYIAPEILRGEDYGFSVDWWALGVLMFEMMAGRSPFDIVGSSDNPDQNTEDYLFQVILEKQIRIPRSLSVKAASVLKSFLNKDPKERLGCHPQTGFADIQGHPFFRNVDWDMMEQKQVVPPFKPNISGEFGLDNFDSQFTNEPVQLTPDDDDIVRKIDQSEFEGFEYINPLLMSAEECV

protein kinase Cα [9] = biological target: T1, protein kinase Cα; experiment: cell-based or functional assay; remark: listed apart in the source
protein kinase C γ [10] = biological target: T2, protein kinase C γ; experiment: cell-based or functional assay; remark: listed apart in the source
protein kinase C ζ [11] = biological target: T3, protein kinase C ζ; experiment: cell-based or functional assay; remark: listed apart in the source
protein kinase C η [12] = biological target: T4, protein kinase C η; experiment: cell-based or functional assay; remark: listed apart in the source
protein kinase C ε [13] = biological target: T5, protein kinase C ε; experiment: cell-based or functional assay; remark: listed apart in the source
protein kinase C θ [14] = biological target: T6, protein kinase C θ; experiment: cell-based or functional assay; remark: listed apart in the source
protein kinase C βI [15] = biological target: T7, protein kinase C βI; experiment: cell-based or functional assay; remark: listed apart in the source
protein kinase C ζ [16] = biological target: T3, protein kinase C ζ; experiment: PKC ζ 33P kinase assay, double reciprocal plots at variable peptide substrate; competitive pattern
Description: K_i determinations. […] ATP for radioactive detection. 10 µL enzyme diluted buffer containing 20 mM Tris (pH 7.5), PKC (10 ng/well), 0.5 mM DTT, BSA (375 µg/mL) and 0.5 mM EDTA.4Na.2H_2O was added to initiate the reaction. Total reaction volume in each well was 50 µL. All the wells were tested in the same plate and each concentration was tested in triplicate. Subsequent assay workup and scintillation counting were performed as described above. Double reciprocal plots were obtained at different concentrations of substrates. K_i values were calculated using Enzyme Kinetics, SigmaPlot (SPSS Inc.).

protein kinase Cα [17] = biological target: T1, protein kinase Cα; experiment: equilibrium dialysis with fluorescence read-out, 250 nM PKCα and 500 nM peptide 7, 4° C., with AMP-PNP
Description: (§1) Determination of K_D Values. […] All samples were prepared in a buffer containing 50 mM HEPES (pH 7.5), 0.8 mM CaCl_2.2H_2O, 13.6 mM MgCl_2.6H_2O, 0.56 mM EGTA.Na, phosphatidylserine (90 µg/mL), diacylglycerol (16 µg/mL), 4 mM Tris (pH 7.5), 0.2 mM DTT, BSA (146 µg/mL), 0.2 mM EDTA.4Na.2H_2O and AMP-PNP (a nonhydrolyzable ATP analogue) or without AMP-PNP at pH 7.5. Slide-A-Lyzer dialysis slide cassettes (Pierce, 10K MWCO, 0.1-0.5 mL capacity) were employed and contained 250 nM PKCα and 500 nM fluorescein-labeled peptide 7. The slide cassettes contained a final volume of 180 µL. The cassettes were placed in beaker containing a volume of buffer solution that was at least 500-fold greater than that of the sample volume in the dialysis slide cassette. Equilibrium dialysis experiments were performed over a period of 16 hr and maintained at 4° C. The fluorescence intensity of the solutions in the slide cassette (F_i) and in the beaker (F_o) was measured. The excitation wavelength for the fluorescein-labeled peptide 7 was 499 nm and the emission monitored at 519 nm. The K_D values were calculated from Equation 1.

protein kinase Cα [18] = biological target: T1, protein kinase Cα; experiment: equilibrium dialysis with fluorescence read-out, 250 nM PKCα and 500 nM peptide 7, 4° C., without AMP-PNP
Description: as §1

T7 sequence (P05771 whole entry): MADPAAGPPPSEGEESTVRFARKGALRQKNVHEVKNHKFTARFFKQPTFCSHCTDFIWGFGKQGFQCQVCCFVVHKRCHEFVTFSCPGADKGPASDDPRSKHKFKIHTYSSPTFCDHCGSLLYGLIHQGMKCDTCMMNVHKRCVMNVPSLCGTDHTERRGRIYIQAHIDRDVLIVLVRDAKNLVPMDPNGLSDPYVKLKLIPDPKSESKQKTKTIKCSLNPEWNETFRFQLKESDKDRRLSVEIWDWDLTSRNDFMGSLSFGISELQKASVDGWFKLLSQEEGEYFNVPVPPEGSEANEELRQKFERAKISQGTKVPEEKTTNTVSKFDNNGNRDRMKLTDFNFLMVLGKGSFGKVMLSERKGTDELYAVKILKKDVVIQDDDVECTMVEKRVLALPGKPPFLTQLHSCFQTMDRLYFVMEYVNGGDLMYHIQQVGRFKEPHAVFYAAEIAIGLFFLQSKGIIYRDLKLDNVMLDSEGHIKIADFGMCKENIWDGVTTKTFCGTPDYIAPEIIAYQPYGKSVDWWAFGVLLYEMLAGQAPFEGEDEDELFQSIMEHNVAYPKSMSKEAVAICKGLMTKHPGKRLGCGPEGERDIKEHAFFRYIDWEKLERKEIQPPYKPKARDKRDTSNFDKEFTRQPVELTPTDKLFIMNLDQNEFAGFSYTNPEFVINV
T6 sequence (Q04759 whole entry): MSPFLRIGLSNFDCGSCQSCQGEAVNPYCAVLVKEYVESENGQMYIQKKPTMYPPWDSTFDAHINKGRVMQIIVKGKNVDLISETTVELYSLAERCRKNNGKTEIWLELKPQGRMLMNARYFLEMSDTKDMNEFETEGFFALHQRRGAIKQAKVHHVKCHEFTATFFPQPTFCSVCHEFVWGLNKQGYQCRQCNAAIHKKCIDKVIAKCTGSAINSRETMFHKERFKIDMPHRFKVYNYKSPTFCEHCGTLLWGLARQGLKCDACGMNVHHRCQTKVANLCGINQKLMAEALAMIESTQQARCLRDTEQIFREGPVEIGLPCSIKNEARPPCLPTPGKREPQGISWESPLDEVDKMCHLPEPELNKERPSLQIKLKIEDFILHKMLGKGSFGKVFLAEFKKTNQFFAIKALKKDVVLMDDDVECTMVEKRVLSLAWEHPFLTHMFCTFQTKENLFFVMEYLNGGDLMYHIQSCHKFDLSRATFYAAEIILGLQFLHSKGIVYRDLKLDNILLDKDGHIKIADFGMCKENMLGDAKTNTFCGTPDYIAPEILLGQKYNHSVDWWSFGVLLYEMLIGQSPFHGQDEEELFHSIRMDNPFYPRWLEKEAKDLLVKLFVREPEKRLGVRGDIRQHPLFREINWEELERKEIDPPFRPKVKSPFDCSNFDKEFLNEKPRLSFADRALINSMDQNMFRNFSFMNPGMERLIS
T4 sequence (P24723 whole entry): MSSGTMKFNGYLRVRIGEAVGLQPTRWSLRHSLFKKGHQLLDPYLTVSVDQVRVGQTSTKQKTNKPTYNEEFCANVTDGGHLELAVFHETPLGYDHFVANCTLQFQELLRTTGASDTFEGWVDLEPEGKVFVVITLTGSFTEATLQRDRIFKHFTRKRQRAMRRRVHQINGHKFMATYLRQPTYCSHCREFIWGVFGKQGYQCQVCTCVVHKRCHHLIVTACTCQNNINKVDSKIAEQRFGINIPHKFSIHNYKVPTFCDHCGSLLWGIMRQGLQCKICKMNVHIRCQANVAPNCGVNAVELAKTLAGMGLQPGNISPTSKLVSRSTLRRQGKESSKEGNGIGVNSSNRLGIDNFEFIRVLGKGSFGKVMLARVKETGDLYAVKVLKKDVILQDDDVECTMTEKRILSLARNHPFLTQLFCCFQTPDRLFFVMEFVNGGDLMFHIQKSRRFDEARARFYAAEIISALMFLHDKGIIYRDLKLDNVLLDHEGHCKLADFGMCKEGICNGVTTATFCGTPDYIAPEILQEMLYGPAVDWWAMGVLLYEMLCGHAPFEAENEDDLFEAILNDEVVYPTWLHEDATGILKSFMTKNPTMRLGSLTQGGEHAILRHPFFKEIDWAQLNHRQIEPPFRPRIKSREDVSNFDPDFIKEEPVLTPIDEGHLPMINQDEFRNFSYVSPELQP

Binder	IC50, PKC kinase assay (33P, peptide substrate) (protein kinase Cα [1]) [µM]	IC50, PKC kinase assay (33P, peptide substrate) (protein kinase C γ [2]) [µM]	IC50, PKC kinase assay (33P, peptide substrate) (protein kinase C ζ [3]) [µM]	IC50, PKC kinase assay (33P, peptide substrate) (protein kinase C η [4]) [µM]	IC50, PKC kinase assay (33P, peptide substrate) (protein kinase C ε [5]) [µM]	IC50, PKC kinase assay (33P, peptide substrate) (protein kinase C θ [6]) [µM]	IC50, PKC kinase assay (33P, peptide substrate) (protein kinase C βI [7]) [µM]	Fold selectivity (IC50), PKC ζ = 1 [8] [fold]	Fold selectivity (IC50), PKC ζ = 1 (protein kinase Cα [9]) [fold]	Fold selectivity (IC50), PKC ζ = 1 (protein kinase C γ [10]) [fold]	Fold selectivity (IC50), PKC ζ = 1 (protein kinase C ζ [11]) [fold]	IC50 or Ki of the most potently inhibited isoform (protein kinase C ζ [11]) [µM]	Fold selectivity (IC50), PKC ζ = 1 (protein kinase C η [12]) [fold]	Fold selectivity (IC50), PKC ζ = 1 (protein kinase C ε [13]) [fold]	Fold selectivity (IC50), PKC ζ = 1 (protein kinase C θ [14]) [fold]	Fold selectivity (IC50), PKC ζ = 1 (protein kinase C βI [15]) [fold]	Ki (protein kinase C ζ [16]) [µM]	Kd (protein kinase Cα [17]) [µM]	Kd (protein kinase Cα [18]) [µM]
{bis(2,3-dihydroxybenzyl)}-RRQG[Dap](4‑nitrohippuryl)FMYF-Cysteamide (reading uncertain) [Compound G (doubly alkylated analogue of F)]	47.5	38.2	0.00075	15.3	34.5	16.7	5.5	1490	6330	5090	1	0.0075	2040	4600	2230	730	0.0039		
Ac-ARRGALR[Dap](Benzoyl(4-(pyrrol-1-yl)))A-{NH(CH2)2S-CH2CONH‑fluorescein‑5‑yl} [fluorescein-labeled peptide 7]																		0.203	1.8
